Laboratory results as given in publication PMC6834678.

Experiments:
[1] = molecular target: C1q (of human serum) (human (endogenous in human serum)) (UniProt P02745)
[2] = molecular target: DHS-IgG3 (class-switched IgG3 variant of Trastuzumab, G3m16 allotype with H435, with the DHS mutations) (human); experiment: SPR; antibody variants immobilised on CM5 chip (~500 RU, amine coupling); hFcRn:hβ2m dimer injected at serial dilutions (1000-40 nM) in PBS, pH 5.8, 30 μL/min; KD from steady-state isotherms or from kinetics with a 1:1 Langmuir mass transfer model
[3] = molecular target: DHS-IgG4 (class-switched IgG4 variant of Trastuzumab with the DHS mutations) (human); experiment: as above
[4] = molecular target: wt-IgG4 (class-switched IgG4 variant of Trastuzumab, wild-type Fc) (human); experiment: as above
[5] = molecular target: EDH-IgG1 (Trastuzumab IgG1 with V264E, L309D, Q311H) (human); experiment: as above
[6] = molecular target: N434S-IgG1 (Trastuzumab IgG1 with N434S) (human); experiment: as above
[7] = molecular target: wt-IgG3 (class-switched IgG3 variant of Trastuzumab, G3m16 allotype with H435, wild-type Fc) (human); experiment: as above

Chain of UniProt P02745 (P02745 23-245, chain 1 of 3): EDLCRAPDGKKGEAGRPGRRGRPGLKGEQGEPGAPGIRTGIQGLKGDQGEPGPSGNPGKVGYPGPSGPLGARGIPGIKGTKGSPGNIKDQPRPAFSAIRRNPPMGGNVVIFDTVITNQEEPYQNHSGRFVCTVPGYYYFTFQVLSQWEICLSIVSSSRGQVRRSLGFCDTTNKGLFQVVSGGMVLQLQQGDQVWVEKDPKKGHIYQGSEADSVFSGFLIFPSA
Chain of UniProt P02745 (P02746 28-253, chain 2 of 3, further chain): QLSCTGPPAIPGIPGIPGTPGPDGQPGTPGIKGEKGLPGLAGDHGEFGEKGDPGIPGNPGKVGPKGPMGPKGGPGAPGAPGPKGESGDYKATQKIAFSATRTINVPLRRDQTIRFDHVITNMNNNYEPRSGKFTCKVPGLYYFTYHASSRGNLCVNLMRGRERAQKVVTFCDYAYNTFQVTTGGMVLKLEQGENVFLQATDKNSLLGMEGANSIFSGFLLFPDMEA
Chain of UniProt P02745 (P02747 29-245, chain 3 of 3, further chain): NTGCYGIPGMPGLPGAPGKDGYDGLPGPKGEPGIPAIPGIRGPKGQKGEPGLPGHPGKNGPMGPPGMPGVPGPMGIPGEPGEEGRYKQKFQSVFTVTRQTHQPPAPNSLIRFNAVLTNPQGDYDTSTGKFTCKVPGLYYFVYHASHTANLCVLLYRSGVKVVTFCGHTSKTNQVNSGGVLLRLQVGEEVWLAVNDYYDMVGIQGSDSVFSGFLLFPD

Substance	CDC of Raji cells with 25% human serum against antibody concentration; potency (name of the quantity not given) [1] [µg/mL]	Kd [2] [nM]	Kd [3] [nM]	Kd [4] [nM]	Kd [5] [nM]	Kd [6] [nM]	Kd [7] [nM]
DHS-Rituximab IgG1 (anti-CD20 IgG1 with L309D/Q311H/N434S) (antibody)	0.7	–	–	–	–	–	–
LS-Rituximab (anti-CD20 IgG1 with M428L/N434S) (antibody)	1.9	–	–	–	–	–	–
human FcRn/human β2m complex (hFcRn:hβ2m dimer) (from UniProt P55899 24-297; P61769 21-119)	–	739	832	2460	487	220	4080
